According to article PMC12069552, “Root stem cell homeostasis in Arabidopsis involves cell-type specific transcription factor complexes” (EMBO Reports, 2025):
Each block holds one molecule with its values, some of them ahead of it.

Legend:
[1] = target: WOX5-mV(N) PLT3-mV(C) heterodimer (BiFC donor) (Arabidopsis thaliana) (UniProt Q8H1D2); test: split reporter (BiFC, NanoBiT) + FRET or BRET; BiFC-FRET-FLIM in nuclei of N. benthamiana epidermal leaf cells; mVenus donor split into mV(N) and mV(C) on two proteins, third protein with mCherry as acceptor; 'binding' [%]; binding cutoff 10%
[2] = target: BRAVO-mVenus (BRASSINOSTEROIDS AT VASCULAR AND ORGANIZING CENTRE) (Arabidopsis thaliana) (UniProt Q6R053); test: FRET or BRET; FRET-FLIM in nuclei of transiently expressing N. benthamiana epidermal leaf cells; mVenus fusion as donor, mCherry fusion as acceptor; 'binding' [%] is the amplitude of the FRET component (number of donor molecules undergoing FRET); binding cutoff 10%; a binding not significantly different from the negative control (mCherry-NLS) is regarded as no interaction
[3] = target: T1, WOX5-mV(N) PLT3-mV(C) heterodimer (BiFC donor) (Arabidopsis thaliana, UniProt Q8H1D2 1-182; Q52QU2 1-581); test: split reporter (BiFC, NanoBiT) + FRET or BRET; BiFC-FRET-FLIM in nuclei of N. benthamiana epidermal leaf cells; mVenus donor split into mV(N) and mV(C) on two proteins, third protein with mCherry as acceptor; 'binding' [%]; binding cutoff 10%; details: partners not purified
T1 construct: WUSCHEL-RELATED HOMEOBOX 5 (WOX5) of Arabidopsis thaliana; the CDS, described in Burkart et al, 2022; PLETHORA 3 (PLT3) of Arabidopsis thaliana; The two halves of mVenus are reconstituted in the heterodimer, which serves as FRET donor; also called heterodimer of WOX5 and PLT3; source: N. benthamiana abaxial epidermal leaf cells, transiently co-expressed, in cells
T1 sequence (looked up) 1: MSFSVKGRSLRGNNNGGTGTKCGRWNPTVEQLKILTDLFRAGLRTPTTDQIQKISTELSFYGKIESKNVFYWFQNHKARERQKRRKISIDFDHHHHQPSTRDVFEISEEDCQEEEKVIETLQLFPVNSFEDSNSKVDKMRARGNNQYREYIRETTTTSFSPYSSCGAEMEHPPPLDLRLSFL
T1 sequence (looked up) 2: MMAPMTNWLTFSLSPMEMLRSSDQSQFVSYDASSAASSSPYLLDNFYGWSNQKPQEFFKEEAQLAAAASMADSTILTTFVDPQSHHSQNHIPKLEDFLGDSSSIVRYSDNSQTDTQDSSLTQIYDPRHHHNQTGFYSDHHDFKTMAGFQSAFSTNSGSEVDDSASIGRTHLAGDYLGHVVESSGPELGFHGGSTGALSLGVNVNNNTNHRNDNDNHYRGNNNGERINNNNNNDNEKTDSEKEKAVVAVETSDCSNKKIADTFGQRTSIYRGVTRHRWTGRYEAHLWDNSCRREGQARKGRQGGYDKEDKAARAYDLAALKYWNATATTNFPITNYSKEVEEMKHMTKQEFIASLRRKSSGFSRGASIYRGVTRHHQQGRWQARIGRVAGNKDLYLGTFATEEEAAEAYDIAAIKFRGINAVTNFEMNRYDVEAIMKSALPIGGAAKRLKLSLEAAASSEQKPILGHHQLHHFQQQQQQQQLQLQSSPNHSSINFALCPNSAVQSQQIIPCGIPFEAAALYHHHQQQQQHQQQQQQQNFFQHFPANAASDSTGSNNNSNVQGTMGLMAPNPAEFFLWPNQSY

[4] = target: T2, BRAVO-mV(N) PLT3-mV(C) heterodimer (BiFC donor) (Arabidopsis thaliana, UniProt Q6R053 1-323; Q52QU2 1-581); test: as above; details: partners not purified
T2 construct: BRAVO, R2R3-MYB transcription factor of Arabidopsis thaliana; the CDS amplified from cDNA; PLETHORA 3 (PLT3) of Arabidopsis thaliana; the CDS, described in Burkart et al, 2022; The two halves of mVenus are reconstituted in the heterodimer, which serves as FRET donor; source: N. benthamiana abaxial epidermal leaf cells, transiently co-expressed, in cells
T2 sequence (looked up) 1: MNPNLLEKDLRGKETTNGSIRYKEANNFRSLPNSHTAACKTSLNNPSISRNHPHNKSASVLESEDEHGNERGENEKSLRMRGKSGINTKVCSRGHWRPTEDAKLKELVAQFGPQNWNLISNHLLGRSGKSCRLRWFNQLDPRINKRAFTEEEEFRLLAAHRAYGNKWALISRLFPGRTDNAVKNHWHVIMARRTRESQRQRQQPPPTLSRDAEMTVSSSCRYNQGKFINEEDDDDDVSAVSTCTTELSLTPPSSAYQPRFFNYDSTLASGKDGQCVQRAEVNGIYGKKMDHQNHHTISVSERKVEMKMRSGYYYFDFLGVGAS
T2 sequence (looked up) 2: T1 sequence (looked up) 2

[5] = target: T3, BRAVO-mVenus (BRASSINOSTEROIDS AT VASCULAR AND ORGANIZING CENTRE) (Arabidopsis thaliana, UniProt Q6R053 1-323); test: FRET or BRET; FRET-FLIM in nuclei of transiently expressing N. benthamiana epidermal leaf cells; mVenus fusion as donor, mCherry fusion as acceptor; 'binding' [%] is the amplitude of the FRET component (number of donor molecules undergoing FRET); binding cutoff 10%; a binding not significantly different from the negative control (mCherry-NLS) is regarded as no interaction; details: partners not purified
T3 construct: BRAVO, R2R3-MYB transcription factor of Arabidopsis thaliana; the CDS amplified from cDNA; FRET donor; source: N. benthamiana abaxial epidermal leaf cells, transiently expressed (β-estradiol inducible promoter), in cells
T3 sequence (looked up): T2 sequence (looked up) 1

binding (FRET-FLIM, share of donor molecules undergoing FRET) [3]: 23.3 ± 8.3% | binding (FRET-FLIM, share of donor molecules undergoing FRET) [4]: 21.1 ± 8.3% | binding (FRET-FLIM, share of donor molecules undergoing FRET) [5]: 26.7 ± 9.8%
B1: TPL-mCherry (TOPLESS) (natural protein, Arabidopsis thaliana, UniProt Q94AI7 1-1131, looked up)
chain: MSSLSRELVFLILQFLDEEKFKETVHKLEQESGFFFNMKYFEDEVHNGNWDEVEKYLSGFTKVDDNRYSMKIFFEIRKQKYLEALDKHDRPKAVDILVKDLKVFSTFNEELFKEITQLLTLENFRENEQLSKYGDTKSARAIMLVELKKLIEANPLFRDKLQFPTLRNSRLRTLINQSLNWQHQLCKNPRPNPDIKTLFVDHSCGPPNGARAPSPVNNPLLGGIPKAGGFPPLGAHGPFQPTASPVPTPLAGWMSSPSSVPHPAVSAGAIALGGPSIPAALKHPRTPPTNASLDYPSADSEHVSKRTRPMGISDEVNLGVNMLPMSFSGQAHGHSPAFKAPDDLPKTVARTLSQGSSPMSMDFHPIKQTLLLVGTNVGDIGLWEVGSRERLVQKTFKVWDLSKCSMPLQAALVKEPVVSVNRVIWSPDGSLFGVAYSRHIVQLYSYHGGEDMRQHLEIDAHVGGVNDISFSTPNKQLCVITCGDDKTIKVWDAATGVKRHTFEGHEAPVYSVCPHYKENIQFIFSTALDGKIKAWLYDNMGSRVDYDAPGRWCTTMAYSADGTRLFSCGTSKDGESFIVEWNESEGAVKRTYQGFHKRSLGVVQFDTTKNRYLAAGDDFSIKFWDMDAVQLLTAIDGDGGLQASPRIRFNKEGSLLAVSGNENVIKIMANSDGLRLLHTFENISSESSKPAINSIAAAAAAAATSAGHADRSANVVSIQGMNGDSRNMVDVKPVITEESNDKSKIWKLTEVSEPSQCRSLRLPENLRVAKISRLIFTNSGNAILALASNAIHLLWKWQRNERNATGKATASLPPQQWQPASGILMTNDVAETNPEEAVPCFALSKNDSYVMSASGGKISLFNMMTFKTMATFMPPPPAATFLAFHPQDNNIIAIGMDDSTIQIYNVRVDEVKSKLKGHSKRITGLAFSNVLNVLVSSGADAQLCVWNTDGWEKQRSKVLPLPQGRPNSAPSDTRVQFHQDQAHFLVVHETQLAIYETTKLECMKQWAVRESLAPITHATFSCDSQLVYASFMDATVCVFSSANLRLRCRVNPSAYLPASLSNSNVHPLVIAAHPQEPNMFAVGLSDGGVHIFEPLESEGKWGVAPPAENGSASGAPTAPSVGASASDQPQR
notes: TOPLESS (TPL) of Arabidopsis thaliana; the CDS amplified from cDNA; FRET acceptor; source: N. benthamiana abaxial epidermal leaf cells, transiently expressed (β-estradiol inducible), in cells

binding (FRET-FLIM, share of donor molecules undergoing FRET) [4]: 29.8 ± 10.6% | binding (FRET-FLIM, share of donor molecules undergoing FRET) [5]: 22.4 ± 14.1%
B2: WOX5-mCherry (WUSCHEL-RELATED HOMEOBOX 5) (natural protein, Arabidopsis thaliana, UniProt Q8H1D2 1-182, looked up)
chain: T1 sequence (looked up) 1
notes: WUSCHEL-RELATED HOMEOBOX 5 (WOX5), homeodomain transcription factor of Arabidopsis thaliana; the CDS, described in Burkart et al, 2022; FRET acceptor; construct XVE:WOX5-mCherry of Burkart et al, 2022; source: N. benthamiana abaxial epidermal leaf cells, transiently expressed (β-estradiol inducible), in cells

Second part, the molecule before the results:

Molecule: BES1D-mCherry (BRI1-EMS-SUPPRESSOR 1, BES1D form) (from UniProt Q9LN63 1-335) (natural protein)
binding (FRET-FLIM, share of donor molecules undergoing FRET) [1]: 18.7% | binding (FRET-FLIM, share of donor molecules undergoing FRET) [2]: 27.4%

B3: BRAVO-mCherry (natural protein, Arabidopsis thaliana, UniProt Q6R053 1-323, looked up)
chain: T2 sequence (looked up) 1
notes: BRAVO, R2R3-MYB transcription factor of Arabidopsis thaliana; the CDS amplified from cDNA; FRET acceptor; source: N. benthamiana abaxial epidermal leaf cells, transiently expressed (β-estradiol inducible), in cells
binding (FRET-FLIM, share of donor molecules undergoing FRET) [3]: 36.3 ± 10.7%
